According to patent US20250215412A1 (NOVOZYMES A S, published 2025):
Positions count from the first letter of the chain named. Numbers in names are those of the source. Where two headings read alike, the source gives them in different places.

How the values were obtained:
Experiment in all cases: cell-based or functional assay
[1] = biological target: T1, Chryseobacterium sp-62563 deamidase Q160W (Chryseobacterium sp-62563)
T1 sequence: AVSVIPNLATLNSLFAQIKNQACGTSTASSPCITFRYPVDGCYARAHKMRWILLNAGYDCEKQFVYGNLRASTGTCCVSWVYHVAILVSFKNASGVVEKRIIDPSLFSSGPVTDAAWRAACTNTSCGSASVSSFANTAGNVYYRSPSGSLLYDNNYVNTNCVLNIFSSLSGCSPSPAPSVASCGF

[2] = biological target: T2, Chryseobacterium sp-62563 deamidase Q160N (Chryseobacterium sp-62563)
T2 sequence: T1 sequence with W51N

[3] = biological target: T3, Chryseobacterium sp-62563 deamidase Q160D (Chryseobacterium sp-62563)
T3 sequence: T1 sequence with W51D

[4] = biological target: T4, Chryseobacterium sp-62563 deamidase polypeptide (second polypeptide, deamidase domain), wildtype (Chryseobacterium sp-62563)
T4 sequence: T1 sequence with W51Q

[5] = biological target: T5, Chryseobacterium sp-62563 deamidase Q172I (Chryseobacterium sp-62563)
T5 sequence: T1 sequence with W51Q, Q63I

[6] = biological target: T6, Chryseobacterium sp-62563 deamidase Q172E (Chryseobacterium sp-62563)
T6 sequence: T1 sequence with W51Q, Q63E

[7] = biological target: T7, Chryseobacterium sp-62563 deamidase C169S (Chryseobacterium sp-62563)
T7 sequence: T1 sequence with W51Q, C60S

[8] = biological target: T8, Chryseobacterium sp-62563 deamidase Q130L (Chryseobacterium sp-62563)
T8 sequence: T1 sequence with Q21L, W51Q

[9] = biological target: T9, Chryseobacterium sp-62563 deamidase Q126F (Chryseobacterium sp-62563)
T9 sequence: T1 sequence with Q17F, W51Q

[10] = biological target: T10, Chryseobacterium sp-62563 deamidase V111A (Chryseobacterium sp-62563)
T10 chain: T1 sequence with V2A, W51Q

[11] = biological target: T11, Chryseobacterium sp-62563 deamidase C230S (Chryseobacterium sp-62563)
T11 chain: T1 sequence with W51Q, C121S

[12] = biological target: T12, Chryseobacterium sp-62563 deamidase C169S (Chryseobacterium sp-62563)
T12 chain: T1 sequence with W51Q, C60S

[13] = biological target: Chryseobacterium sp-62563 deamidase A131* (Chryseobacterium sp-62563)
[14] = biological target: Chryseobacterium sp-62563 deamidase V148* (Chryseobacterium sp-62563)
[15] = biological target: Chryseobacterium sp-62563 deamidase D262* (Chryseobacterium sp-62563)

B1: Chryseobacterium sp-62563 propeptide F99A (protein)
chain: NQDPNLVAKESNETAMKDFGKTVPVGIEKEDGKFKISFMVTAQPYEIKDSKENAAYISMIKTAVENETPIHVFLKANTNEIAKVDKATDDDIRYFKSVATKEVKEENRK
[1]
  Leakage activity: 2%
  Relative activity of maturated deamidase (% initial rate): > 100
[2]
  Relative activity of maturated deamidase (% initial rate): > 100
[3]
  Relative activity of maturated deamidase (% initial rate): > 100
[4]
  Leakage activity: 4%
  NanoDSF thermal unfolding temperature: 76.4 ° C.
  Relative activity of maturated deamidase (% initial rate): 52
[5]
  Relative activity of maturated deamidase (% initial rate): 31
[6]
  Relative activity of maturated deamidase (% initial rate): 64
[7]
  Leakage activity: 1%
  Relative activity of maturated deamidase (% initial rate): > 100
[8]
  Relative activity of maturated deamidase (% initial rate): > 100
[9]
  Relative activity of maturated deamidase (% initial rate): 52

B2: Chryseobacterium sp-62563 propeptide (first polypeptide, propeptide domain), wildtype (other)
chain: B1 chain with A99F
[10]
  Leakage activity: 0%
[11]
  Leakage activity: 13%
[12]
  Leakage activity: 0%
[13]
  NanoDSF thermal unfolding temperature: 79.1 ° C.
[14]
  NanoDSF thermal unfolding temperature: 69.2 ° C.
[15]
  NanoDSF thermal unfolding temperature: 77.7 ° C.
